Where no end group is shown, it is not given here.

In assay [1] the target is fluorescent receptor NK2R-RF1 (construct pCEP4-NK2R-RF1): EGFP fused between the alpha7 signal peptide and the amino-terminal end of the rat NK2R receptor, expressed on HEK 293 cells (Aequorea victoria; rat) (UniProt P16610). In words: displacement of 3H SR 48968 on HEK 293 cells expressing NK2R-RF1, filtration (FIG. 8b).
The target in assay [2] is wild-type rat NK2R receptor of tachykinins (construct pCEP4-NK2R), expressed on HEK 293 cells (rat) (UniProt P16610). In words: displacement of 3H SR 48968 on HEK 293 cells expressing wild-type NK2R, filtration.
Assay [3] has as its target fluorescent receptor NK2R-RF1 (construct pCEP4-NK2R-RF1): EGFP fused between the alpha7 signal peptide and the amino-terminal end of the rat NK2R receptor, expressed on HEK 293 cells (Aequorea victoria; rat) (UniProt P16610). The assay is described as follows: displacement of 3H SR 48968 on HEK 293 cells expressing NK2R-RF1, filtration.
Assay [4] has the same target. In words: FRET saturation on cells expressing NK2R-RF1, 0 to 256 nM NKA BO I.
Assay [5] has the same target. In words: FRET saturation: amplitude of EGFP fluorescence extinction against NKA BO I concentration, cells expressing NK2R-RF1 (FIG. 13).
In assay [6] the target is T1, wild-type rat NK2R receptor of tachykinins (construct pCEP4-NK2R), expressed on HEK 293 cells (rat, UniProt P16610 1-390).
T1 construct: whole, on cells; Stably expressed in HEK 293 cells; also called NK2R-WT; NK2R WT
T1 sequence (looked up): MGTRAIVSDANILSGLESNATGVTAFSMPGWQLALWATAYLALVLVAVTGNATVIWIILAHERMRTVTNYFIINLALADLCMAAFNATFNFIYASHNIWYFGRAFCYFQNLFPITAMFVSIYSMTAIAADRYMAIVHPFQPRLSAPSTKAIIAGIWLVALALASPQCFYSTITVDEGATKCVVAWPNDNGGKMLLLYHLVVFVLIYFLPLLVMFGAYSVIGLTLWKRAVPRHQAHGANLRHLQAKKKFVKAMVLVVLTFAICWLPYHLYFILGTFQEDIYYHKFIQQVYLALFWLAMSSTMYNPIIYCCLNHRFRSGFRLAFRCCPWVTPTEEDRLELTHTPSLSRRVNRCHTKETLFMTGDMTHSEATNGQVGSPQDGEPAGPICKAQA
The assay is described as follows: displacement of 3H SR 48968 on HEK 293 cells expressing NK2R-WT, filtration (FIG. 8a). The procedure:
The incubation is carried out for one hour at 4° C. Filtration is carried out at the end of incubation, as described in 3b).
(Displacement assays read how much labelled ligand stays bound in the presence of the test substance.)

With “neurokinin A (from UniProt P20366 98-107) (peptide)”, the Ki (usually a measure of affinity in units of concentration, obtained from inhibition or displacement) in assay [1] turned out to be 2.1 nM.

With MEN 10,376 (Bachem) (peptide), the inhibitory constant (Ki) in assay [2] turned out to be 53 nM; in assay [3] it was 61 nM.

B1: NKA BO I (neurokinin A labeled with BODIPY 530/550 IA) (peptide, UniProt P20366 98-107, looked up)
peptide: HKTDSFVGLM
modifications: also: BODIPY 530/550 IA label, site not given here
notes: mature; HPLC-purified reaction product of NKA with BODIPY 530/550 IA; also called NKA BO 1; NKA-Bodipy derivative
In the case of B1, the figures for the Kd in assay [4] and in assay [5] were 20 to 30 nM and 24 nM, respectively. Further, the Ki in assay [1] and in assay [6] was 16.1 nM in each case.

(Values after patent US20060275828A1 (CENTRE NATIONAL DE LA RECHERCHE SCIENTIFIQUE, published 2006).)
